In patent US20210155910, “IMPROVED REVERSE TRANSCRIPTASE AND METHODS OF USE” (YALE UNIVERSITY, published 2021):

Molecular target: T1, E.r. maturase (MarathonRT) WT (Eubacterium rectale)
T1 chain: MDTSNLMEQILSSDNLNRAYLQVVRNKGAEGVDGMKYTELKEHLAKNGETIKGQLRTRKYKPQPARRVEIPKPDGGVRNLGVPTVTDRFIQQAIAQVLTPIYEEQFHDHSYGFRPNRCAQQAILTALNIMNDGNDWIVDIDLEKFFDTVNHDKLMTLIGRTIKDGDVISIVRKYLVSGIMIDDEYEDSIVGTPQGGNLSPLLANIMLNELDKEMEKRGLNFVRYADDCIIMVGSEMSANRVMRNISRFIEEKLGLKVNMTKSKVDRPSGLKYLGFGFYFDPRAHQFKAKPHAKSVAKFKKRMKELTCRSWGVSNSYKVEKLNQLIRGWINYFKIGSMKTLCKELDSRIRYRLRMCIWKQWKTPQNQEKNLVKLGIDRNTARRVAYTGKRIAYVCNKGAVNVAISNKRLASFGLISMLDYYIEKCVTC
Assay: indirect: D4A at 16:1 raises primer incorporation on RepA D3 from 84.1% to 93.0%; Tris pH 8.3, 200 mM KCl, 2 mM MgCl2, 0.6 M trehalose
Conditions: tags: N-terminal 6xHis-SUMO, cleaved; hairpin
Source text: The surface of E.r. maturase is enriched with positively charged amino acids, to which primers used for reverse transcription non-specifically binds, and thus the efficiency of primer utilization is compromised. To reduce the non-specific binding, D4A helix (FIG. 12A, originated from E.r. Group II intron) was used in the reaction buffer to block the positively charged residues on the surface of E.r. maturase, attempting to further improve the performance of E.r. maturase in the already optimized buffer (50 mM Tris pH 8.3, 200 mM KCl, 2 mM MgCl₂, 5 mM DTT and 0.6 M trehalose).

B1: D4A helix of E.r. group II intron (ssRNA)
RNA: GUCUCGUAUUGCAGAAAUGACAACAUCUGCCGUAACCAAUCGGGUAAAAGGUGGUCAAAUCAAGCGAGAC
B1: binds.
